Values quoted from earlier work, collected in PMC6238587.

Target: PDI (Homo sapiens) (UniProt P07237)
Assay: surface plasmon resonance
Conditions: cited from earlier work

Chain of PDI (Homo sapiens) (P07237 18-508): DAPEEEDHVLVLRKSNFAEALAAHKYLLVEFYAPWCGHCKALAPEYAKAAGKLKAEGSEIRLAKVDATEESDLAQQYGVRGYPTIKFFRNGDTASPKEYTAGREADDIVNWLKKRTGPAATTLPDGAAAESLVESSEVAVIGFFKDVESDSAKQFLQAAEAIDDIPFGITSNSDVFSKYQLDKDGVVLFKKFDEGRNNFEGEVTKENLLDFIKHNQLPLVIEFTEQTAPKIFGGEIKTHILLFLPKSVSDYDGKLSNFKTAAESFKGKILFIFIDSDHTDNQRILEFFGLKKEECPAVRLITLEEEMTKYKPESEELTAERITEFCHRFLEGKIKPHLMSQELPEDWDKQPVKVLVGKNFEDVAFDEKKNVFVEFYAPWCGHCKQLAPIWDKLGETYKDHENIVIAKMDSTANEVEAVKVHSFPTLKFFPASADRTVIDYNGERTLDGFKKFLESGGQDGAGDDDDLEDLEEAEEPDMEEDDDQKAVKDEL

## Ero1α (from UniProt Q96HE7)
  Kd: 2100 nM
